# Assay results reported in patent publication US20240398963A1 (priority 2021, published 2024).
# Assay type: physicochemical
# Conditions: 10 mM PBS buffer (pH=7.4), 37° C., 100 rpm shaker; free drug by HPLC, average release per day
# Method: The drug release and stability experiments were run using the test compounds. About 2.5±1.0 mg/mL (with regard to conjugate) solution of each test compound was prepared with 10 mM PBS buffer (pH=7.4) in Millipore Amicon® Ultra-0.5 ml 30 k Ultrafiltration centrifuge tube. The solution was kept swelling for 1 h at room temperature and then placed in a shaker at 100 rpm, 37° C. for continuous experiment. At the same time point of each day, samples were centrifuged at 10000 rpm for 1 h. The aliquot was transferred to HPLC vial for analysis. An 0.4 mL of 10 mM PBS buffer was added into the centrifuge tube and continue the experiment.
# For the HPLC analysis at each time point, the peak areas of all relevant peaks from the chromatograms were retrieved and the concentration of free drug was calculated. Average release of free drug was calculated based on the sum of free drug and numbers of experiment days. The computing equation is as below.
# The sample degradation rate was calculated based on the concentration and degree of substitution (NMR) for conjugated drug with regard to the initial starting point of the experiment (at t=0). The computing equation is as below.
row,Substance,Release rate [%/day]
1,"Conjugate of CS (Chondroitin sulfate) and 2-aminopropyl (2-((6αS,6βR,7S,8αS,8βS,11αR,12αS,12βS)-6β-fluoro-7-hydroxy-6α,8α,10,10-tetramethyl-4-oxo-1,2,4,6α,6β,7,8,8α,11α,12,12α,12β-dodecahydro-8βH-naphtho[2′,1′:4,5]indeno[1,2-d][1,3]dioxol-8β-yl)-2-oxoethyl) carbonate [Example 53]",1.49
2,"Conjugate of CS and 2-(2-(2-(2-aminoethoxy)ethoxy)ethoxy)ethyl (2-((6αS,6βR,7S,8αS,8βS,11αR,12αS,12βS)-6β-fluoro-7-hydroxy-6α,8α,10,10-tetramethyl-4-oxo-1,2,4,6α,6β,7,8,8α,11α,12,12α,12β-dodecahydro-8βH-naphtho[2′,1′:4,5]indeno[1,2-d][1,3]dioxol-8β-yl)-2-oxoethyl) carbonate [Example 55]",1.20
3,"Conjugate of CS and 2-((6S,8S,9S,10R,11S,13S,14S,17R)-11,17-dihydroxy-6,10,13-trimethyl-3-oxo-6,7,8,9,10,11,12,13,14,15,16,17-dodecahydro-3H-cyclopenta[a]phenanthren-17-yl)-2-oxoethyl 4-aminobutanoate [Example 43]",1.07
4,"Conjugate of CS and 2-((6αS,6βR,7S,8αS,8βS,11αR,12αS,12βS)-6β-fluoro-7-hydroxy-6α,8α,10,10-tetramethyl-4-oxo-1,2,4,6α,6β,7,8,8α,11α,12,12α,12β-dodecahydro-8βH-naphtho[2′,1′:4,5]indeno[1,2-d][1,3]dioxol-8β-yl)-2-oxoethyl 2,5-diazabicyclo[2.2.1]heptane-2-carboxylate [Example 59]",0.02
5,"Conjugate of CS and 2-((6αS,6βR,7S,8αS,8βS,11αR,12αS,12βS)-6β-fluoro-7-hydroxy-6α,8α,10,10-tetramethyl-4-oxo-1,2,4,6α,6β,7,8,8α,11α,12,12α,12β-dodecahydro-8βH-naphtho[2′,1′:4,5]indeno[1,2-d][1,3]dioxol-8β-yl)-2-oxoethyl 7-azaspiro[3.5]nonane-2-carboxylate [Example 49]",0.42
6,"Conjugate of CS and 2-((6αS,6βR,7S,8αS,8βS,11αR,12αS,12βS)-6β-fluoro-7-hydroxy-6α,8α,10,10-tetramethyl-4-oxo-1,2,4,6α,6β,7,8,8α,11α,12,12α,12β-dodecahydro-8βH-naphtho[2′,1′:4,5]indeno[1,2-d][1,3]dioxol-8β-yl)-2-oxoethyl 14-amino-3,6,9,12-tetraoxatetradecanoate [Example 51]",7.21
7,"Conjugate of CS and 2-((6αS,6βR,7S,8αS,8βS,11αR,12αS,12βS)-6β-fluoro-7-hydroxy-6α,8α,10,10-tetramethyl-4-oxo-1,2,4,6α,6β,7,8,8α,11α,12,12α,12β-dodecahydro-8βH-naphtho[2′,1′:4,5]indeno[1,2-d][1,3]dioxol-8β-yl)-2-oxoethyl piperazine-1-carboxylate [Example 57]",0.23
8,"Conjugate of CS and 2-((8S,9R,10S,11S,13S,14S,16R,17R)-9-fluoro-11,17-dihydroxy-10,13,16-trimethyl-3-oxo-6,7,8,9,10,11,12,13,14,15,16,17-dodecahydro-3H-cyclopenta[a]phenanthren-17-yl)-2-oxoethyl 4-aminobutanoate [Example 45]",0.40
9,"Conjugate of CS and 2-((8S,9R,10S,11S,13S,14S,16S,17R)-9-fluoro-11,17-dihydroxy-10,13,16-trimethyl-3-oxo-6,7,8,9,10,11,12,13,14,15,16,17-dodecahydro-3H-cyclopenta[a]phenanthren-17-yl)-2-oxoethyl 4-aminobutanoate [Example 47]",1.24
